Data on two molecules can be found in paper PMC9380774, “Mpe1 senses the binding of pre-mRNA and controls 3′ end processing by CPF” (Molecular Cell, 2022).

The target of data set [1] is T1, polymerase module (Cft1-Pap1-Pfs2-Fip1-Yth1);Mpe1 (Saccharomyces cerevisiae;Saccharomyces …, UniProt Q06632;P29468;P42841;P45976;Q06102;P35728 1-1357;1-568;1-465;1-327;1-208;1-441, |). Description: size exclusion chromatography; 5 uM polymerase module, 15 uM Mpe1, 10 uM RNA; comigration, later elution; EMSA: SEC 50 buffer (composition not given in material), 50 nM FAM-RNA, 10% native PAGE 1X TBE, room temperature; SEC: Superose 6 Increase 3.2/300 in SEC 50. As to conditions: protein: recombinant;recombinant; tags: untagged (from polymerase module-Mpe1 purification); Pfs2-SII in some preparations;C-terminal SII; copies: 1;1;1;1;1;1; label: 5' 6-FAM; single strand. For orientation: SEC sorts molecules by how far they enter the pores of the column.

Data set [2] deals with T1, polymerase module …. Description: cryo-EM; Zn2+; 2.66 A; EMSA: SEC 50 buffer (composition not given in material), 50 nM FAM-RNA, 10% native PAGE 1X TBE, room temperature; SEC: Superose 6 Increase 3.2/300 in SEC 50. The following applies: protein: recombinant;recombinant; tags: untagged (from polymerase module-Mpe1 purification); Pfs2-SII in some preparations;C-terminal SII; copies: 1;1;1;1;1;1; single strand; 4 nt modelled. A general note: Mobility shift assays separate free from complexed probe on a gel.

Data set [3] addresses polymerase module (Cft1-Pap1-Pfs2-Fip1-Yth1);Mpe1;yPIM peptide of Cft2 (Saccharomyces cerevisiae;Saccharomyces …, UniProt Q06632;P29468;P42841;P45976;Q06102;P35728;Q12102 …, ||). Description: cryo-EM; Zn2+; 2.61 A; Cft2 yPIM peptide; EMSA: SEC 50 buffer (composition not given in material), 50 nM FAM-RNA, 10% native PAGE 1X TBE, room temperature; SEC: Superose 6 Increase 3.2/300 in SEC 50. As to conditions: tags: untagged (from polymerase module-Mpe1 purification); Pfs2-SII in some preparations;C-terminal SII;; copies: 1;1;2;1;1;1;1; single strand; 4 nt modelled.

In the case of UUUAUAGUUAUGUUAGUAUUAAGAACGUUAUUUAUAUUUCAA (ssRNA) [precleaved CYC1 (pcCYC1), 42 nt], the binding result in data set [1] was “binds”. Turning to UUUAUAGUUAUGUUAGUAUUAAGAACGUUAUUUAUAUUUCAA (ssRNA) [precleaved CYC1 used for cryo-EM (IDT FAM or T7 version not stated)], the binding result in data set [2] and in data set [3] was “binds” each time.
